Results taken from article PMC12043044, “Synthesis of Selectively ^13C/^2H/^15N‐ Labeled Arginine to Probe Protein Conformation and Interaction by NMR Spectroscopy” (Chemistry (Weinheim an Der Bergstrasse, Germany), 2025).

Target: T1, human ubiquitin (human, UniProt P0CG48 1-76)
T1 construct: ubiquitin, human, the 76 amino acid-long protein (cut product of the polyubiquitin or ubiquitin-ribosomal fusion precursors); Isotope-labelled only (uniformly 15N, arginines 13Cdelta/2Hbeta,gamma/15Nepsilon); No tag is mentioned and the purification uses none; also called arginine-labeled ubiquitin; source: E. coli BL21(DE3), pET-21a(+), purified (heat shock at 70 °C, anion exchange, size …)
Assay: NMR titration; 70 µM arginine-labeled (U-15N, 13Cδ/2Hβγ/15Nε Arg) ubiquitin titrated with increasing amounts of unlabeled Sla1 SH3-3; 50 mM Tris-HCl, pH 8.0, 25 °C; 1H-13C HSQC and 1H-15N SOFAST-HMQC, chemical shift perturbations
Settings: both partners purified

B1: third SH3 domain (SH3-3) of yeast endocytic protein Sla1 (domain or fragment)
chain: MASKSKKRGIVQYDFMAESQDELTIKSGDKVYILDDKKSKDWWMCQLVDSGKSGLVPAQFIEPVRDKKHTE
notes: Sla1, yeast, third SH3 domain (SH3-3); residues E367, E371 and F409 are named as lying in the domain (PDB 2JT4); PDB 2JT4 is the cited NMR model of the complex with ubiquitin and may hold other limits; Plasmid bought from GeneCust; No removal of the tag is described; also called Sla1 SH3-3; source: cell-free expression (E. coli S15 extract, pIVEX2.3d vector), purified (HisTrap FF)
B1: binds.
